Patent US20200317768A1 (published 2020)
Where a chain is given by its changes, count along the chain named.

T1: cynomolgus monkey FcγRIIa2 extracellular domain with C-terminal His-tag (cynomolgus monkey)
T1 construct: Expressed in FreeStyle 293 cells and purified; also called cyno FcγRIIa2; cynoFcgRIIa2; not shown: C-terminal His-tag
T1 chain: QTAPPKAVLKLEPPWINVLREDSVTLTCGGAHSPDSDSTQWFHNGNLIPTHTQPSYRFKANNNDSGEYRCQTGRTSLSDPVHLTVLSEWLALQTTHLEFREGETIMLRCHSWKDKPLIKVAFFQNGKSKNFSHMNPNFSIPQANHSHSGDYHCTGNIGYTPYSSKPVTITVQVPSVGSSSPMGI

T2: human FcγRIIaH extracellular domain with C-terminal His-tag (human, UniProt P12318 34-217)
T2 construct: Expressed in FreeStyle 293 cells and purified; also called human FcγRIIa (type H); FcgRIIaH; not shown: C-terminal His-tag
T2 sequence: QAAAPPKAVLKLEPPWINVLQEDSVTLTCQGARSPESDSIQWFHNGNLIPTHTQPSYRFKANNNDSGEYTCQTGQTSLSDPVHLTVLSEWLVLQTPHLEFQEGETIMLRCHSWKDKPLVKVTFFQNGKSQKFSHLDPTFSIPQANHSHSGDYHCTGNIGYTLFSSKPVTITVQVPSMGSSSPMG

T3: human FcγRIIaR extracellular domain with C-terminal His-tag (human, UniProt P12318 34-217)
T3 construct: Expressed in FreeStyle 293 cells and purified; also called human FcγRIIa (type R); FcgRIIaR; not shown: C-terminal His-tag
T3 chain: T2 sequence with H134R

T4: cynomolgus monkey FcγRIIIaS extracellular domain with C-terminal His-tag (cynomolgus monkey, UniProt Q8SPW2 21-206 at identity 1.00))
T4 construct: Expressed in FreeStyle 293 cells and purified; also called cyno FcγRIIIaS; cynoFcγRIIIaS; not shown: C-terminal His-tag
T4 chain: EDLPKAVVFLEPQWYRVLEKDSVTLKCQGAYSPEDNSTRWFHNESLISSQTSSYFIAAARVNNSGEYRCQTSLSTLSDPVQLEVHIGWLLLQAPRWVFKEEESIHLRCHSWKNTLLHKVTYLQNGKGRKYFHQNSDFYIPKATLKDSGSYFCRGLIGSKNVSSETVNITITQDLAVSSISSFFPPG

T5: cynomolgus monkey FcγRIIa1 extracellular domain with C-terminal His-tag (cynomolgus monkey)
T5 construct: Expressed in FreeStyle 293 cells and purified; also called cyno FcγRIIa1; cynoFcgRIIa1; not shown: C-terminal His-tag
T5 chain: T1 chain with T95P, A121T, K127I, S128A, N130K, N135D, Q142R

T6: cynomolgus monkey FcγRIIb extracellular domain with C-terminal His-tag (cynomolgus monkey)
T6 construct: Expressed in FreeStyle 293 cells and purified; also called cyno FcγRIIb; cynoFcγRIIb; not shown: C-terminal His-tag
T6 chain: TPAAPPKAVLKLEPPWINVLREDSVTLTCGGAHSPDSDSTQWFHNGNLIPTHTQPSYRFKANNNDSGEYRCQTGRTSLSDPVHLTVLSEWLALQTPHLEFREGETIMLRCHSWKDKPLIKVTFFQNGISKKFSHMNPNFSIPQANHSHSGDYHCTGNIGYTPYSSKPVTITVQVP

B1: MS_M103205H795-SG1/M103202L889-SK1 (antibody, human IgG1, kappa)
heavy: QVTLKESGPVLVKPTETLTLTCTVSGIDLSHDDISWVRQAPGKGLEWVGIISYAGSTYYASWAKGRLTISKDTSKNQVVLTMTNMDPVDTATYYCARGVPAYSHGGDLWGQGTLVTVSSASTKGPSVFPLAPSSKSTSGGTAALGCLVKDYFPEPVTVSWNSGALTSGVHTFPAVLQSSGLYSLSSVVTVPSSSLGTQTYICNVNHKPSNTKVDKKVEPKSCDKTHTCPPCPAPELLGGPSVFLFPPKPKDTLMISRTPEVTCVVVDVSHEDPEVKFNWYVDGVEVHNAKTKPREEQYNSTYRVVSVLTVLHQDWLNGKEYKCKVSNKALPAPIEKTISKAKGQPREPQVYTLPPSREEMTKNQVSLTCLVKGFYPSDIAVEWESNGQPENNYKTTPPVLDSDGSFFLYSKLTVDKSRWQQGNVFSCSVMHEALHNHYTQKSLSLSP
light: DIVMTQSPATLSLSPGERATLSCTSSQSVYHANWLSWFQQKPGQPPKLLIYWASTLAYGVPSRFSGSGSGTDFTLTISSLQPEDAATYYCAGGYGGGRYAFGQGTKVEIKRTVAAPSVFIFPPSDEQLKSGTASVVCLLNNFYPREAKVQWKVDNALQSGNSQESVTEQDSKDSTYSLSSTLTLSKADYEKHKVYACEVTHQGLSSPVTKSFNRGEC
notes: Anti-latent myostatin IgG; also called MS1032LO06-SG1
B2: M103205H795-MY168 / M103202L889-SK1 (antibody, human IgG1, kappa)
heavy: QVTLKESGPVLVKPTETLTLTCTVSGIDLSHDDISWVRQAPGKGLEWVGIISYAGSTYYASWAKGRLTISKDTSKNQVVLTMTNMDPVDTATYYCARGVPAYSHGGDLWGQGTLVTVSSASTKGPSVFPLAPSSKSTSGGTAALGCLVKDYFPEPVTVSWNSGALTSGVHTFPAVLQSSGLYSLSSVVTVPSSSLGTQTYICNVNHKPSNTKVDKKVEPKSCDKTHTCPPCPAPELLNGPSVFLFPPKPKDTLMISRTPEVTCVVVDVSEEDPEVKFNWYVDGVEVHNAKTKPREEQYNSTYRVVSVLTVLHQDWLNGKEYKCKVSNKALPAPIEKTISKAKGQPREPQVYTLPPSREEMTKNQVSLTCLVKGFYPSDIAVEWESNGQPENNYKTTPAVLDSDGSFFLYSKLTVDKSRWQQGNVFSCSVMHEALHNHYTQKSLSLSP
light: B1 light
notes: Position 396 variant derived from MY052, expressed with M103202L889-SK1 as light chain
B3: M103205H795-MY171 / M103202L889-SK1 (antibody, human IgG1, kappa)
heavy: B2 heavy with A398F
light: B1 light
notes: as for B2
B4: M103205H795-MY052 / M103202L889-SK1 (antibody, human IgG1, kappa)
heavy: B2 heavy with A398M
light: B1 light
notes: Fc variant of M103205H795-SG1, expressed with M103202L889-SK1 as light chain; parent of the position 396 variants
B5: M103205H795-MY170 / M103202L889-SK1 (antibody, human IgG1, kappa)
heavy: B2 heavy with A398E
light: B1 light
notes: as for B2
B6: M103205H795-MY169 / M103202L889-SK1 (antibody, human IgG1, kappa)
heavy: B2 heavy with A398D
light: B1 light
notes: as for B2

Target: T1, cynomolgus monkey FcγRIIa2 …
Assay: SPR (Biacore); KD of SG1 divided by KD of the variant for this FcgR;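 further: relative to parent M103205H795-SG1 carrying the SG1 human heavy chain constant region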
Experimental: (§1) The kinetic analysis of interactions between these antibodies and FcγR was carried out using BIACORE® T200 or BIACORE® 4000 (GE Healthcare). HBS-EP+ (GE Healthcare) was used as the running buffer, and the measurement temperature was set to 25° C. A chip produced by immobilizing Protein A. Protein A/G or mouse anti-human IgG kappa light chain (BD Biosciences) onto a Series S Sensor Chip CM4 or CM5 (GE Healthcare) by the amine-coupling method was used. […] After the measurement, the antibody captured on the chip was washed off by allowing reaction with 10 mM glycine-HCl, pH1.5 and 25 mM NaOH so that the chip was regenerated and used repeatedly. The sensorgrams obtained as measurement results were analyzed by the 1:1 Langmuir binding model using the BIACORE® Evaluation Software to calculate the binding rate constant ka (L/mol/s) and dissociation rate constant kd (l/s), and the dissociation constant KD (mol/L) was calculated from these values. […] Regarding such interactions, KD values were calculated using the following 1:1 binding model described in BIACORE® T100 Software Handbook BR1006-48 Edition AE.
(§2) The resultant variants were expressed using M103202L889-SK1 as light chain and their affinity to human and cynoFcγRs were evaluated (Table 20).

Row | KD fold (SG1 = 1) | Binder
1 | 1 fold | B1
2 | 2 fold | B2
3 | 2.2 fold | B3
4 | 3.4 fold | B4
5 | 2.1 fold | B5
6 | 2.2 fold | B6

Each binder was assayed against T2, human FcγRIIaH extracellular domain … in the same assay as above.
Experimental: as §1, §2

Row | KD fold (SG1 = 1) | Binder
7 | 1 fold | B1
8 | 0.4 fold | B2
9 | 0.5 fold | B3
10 | 0.8 fold | B4
11 | 0.4 fold | B5
12 | 0.6 fold | B6

Target: T3, human FcγRIIaR extracellular domain …
Assay: as above
Experimental: as §1, §2

Row | KD fold (SG1 = 1) | Binder
13 | 1 fold | B1
14 | 0.4 fold | B2
15 | 0.5 fold | B3
16 | 0.8 fold | B4
17 | 0.4 fold | B5
18 | 0.4 fold | B6

Target: T4, cynomolgus monkey FcγRIIIaS …
Assay: as above
Experimental: as §1, §2

Row | KD fold (SG1 = 1) | Binder
19 | 1 fold | B1
20 | 0.08 fold | B2
21 | 0.11 fold | B3
22 | 0.24 fold | B4
23 | 0.12 fold | B5
24 | 0.1 fold | B6

Target: T5, cynomolgus monkey FcγRIIa1 …
Assay: as above
Experimental: as §1, §2

Row | KD fold (SG1 = 1) | Binder
25 | 1 fold | B1
26 | 1.5 fold | B2
27 | 1.4 fold | B3
28 | 2.3 fold | B4
29 | 1.4 fold | B5
30 | 1.4 fold | B6

Target: T1, cynomolgus monkey FcγRIIa2 …
Assay: SPR (Biacore), antibody captured on chip, FcgR extracellular domain as analyte, 25 C
Experimental: as §1, §2

Row | Kd | Binder
31 | 5100 nM | B1
32 | 2500 nM | B2
33 | 23000 nM | B3
34 | 1500 nM | B4
35 | 2400 nM | B5
36 | 2300 nM | B6

Each binder was assayed against T2, human FcγRIIaH extracellular domain … in the same assay as above.
Experimental: as §1, §2

Row | Kd | Binder
37 | 690 nM | B1
38 | 1600 nM | B2
39 | 1200 nM | B3
40 | 830 nM | B4
41 | 1700 nM | B5
42 | 1200 nM | B6

Target: T6, cynomolgus monkey FcγRIIb extracellular …
Assay: as above
Experimental: as §1, §2

Row | Kd | Binder
43 | 1800 nM | B1
44 | 1200 nM | B2
45 | 980 nM | B3
46 | 460 nM | B4
47 | 1200 nM | B5
48 | 1000 nM | B6

Target: T5, cynomolgus monkey FcγRIIa1 …
Assay: as above
Experimental: as §1, §2

Row | Kd | Binder
49 | 3200 nM | B1
50 | 2200 nM | B2
51 | 2300 nM | B3
52 | 1400 nM | B4
53 | 2300 nM | B5
54 | 2300 nM | B6
